Results on 91 sequences are retold here after the supplement of paper PMC9112550, “Optimization of the antimicrobial peptide Bac7 by deep mutational scanning” (BMC Biology, 2022).

This data set has as its system Escherichia coli TOP10. Put plainly: shrunken log2 fold change of peptide-encoding DNA abundance (4.5 h post-induction vs induction); higher = less antimicrobial activity (less host growth inhibition). The note with it: time post-induction: 4.5 h; library: site-saturation at positions 5, 18, 19, 20.
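Further: peptides expressed intracellularly from a pBAD plasmid library in pooled LB shake-flask culture, induced with 0.3% L-arabinose, DNA abundance read by NGS, three biological replicates, DESeq2 with apeglm shrinkage.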

RRIRGRPPRLPRPRPRPRWFPRP: the “shrunken log2 fold change” value was 0.355.
Consider RRIRTRPPRLPRPRPRPNRIPRP, for which the “shrunken log2 fold change” value was -0.294.
For the sequence RRIRWRPPRLPRPRPRPAHGPRP, the “shrunken log2 fold change” value came to 0.707.
Consider RRIRLRPPRLPRPRPRPPIVPRP, for which the “shrunken log2 fold change” value is -0.531.
RRIRNRPPRLPRPRPRPLKAPRP: the “shrunken log2 fold change” value was -0.0472.
Consider RRIRLRPPRLPRPRPRPSTNPRP, for which the “shrunken log2 fold change” value was -0.451.
For the sequence RRIRKRPPRLPRPRPRPREGPRP, the “shrunken log2 fold change” value stood at 1.08.
RRIRQRPPRLPRPRPRPEIDPRP: the “shrunken log2 fold change” value is -0.0412.
For RRIRMRPPRLPRPRPRPAHNPRP, the “shrunken log2 fold change” value is 0.421.
As to RRIRNRPPRLPRPRPRPQWTPRP, the “shrunken log2 fold change” value is -0.0119.
RRIRPRPPRLPRPRPRPSMGPRP: the “shrunken log2 fold change” value was -0.156.
As to RRIRWRPPRLPRPRPRPVINPRP, the “shrunken log2 fold change” value was -0.0708.
For RRIRDRPPRLPRPRPRPLVNPRP, the “shrunken log2 fold change” value stood at 0.426.
For the sequence RRIRERPPRLPRPRPRPKDSPRP, the “shrunken log2 fold change” value was -0.212.
Consider RRIRQRPPRLPRPRPRPYNVPRP, for which the “shrunken log2 fold change” value is -0.0265.
Turning to RRIRARPPRLPRPRPRPNAYPRP, the “shrunken log2 fold change” value came out at 0.0893.
Turning to RRIRERPPRLPRPRPRPWKSPRP, the “shrunken log2 fold change” value was -0.0163.
The same measure for RRIRGRPPRLPRPRPRPATRPRP: 0.94.
Take RRIRVRPPRLPRPRPRPYPSPRP: the “shrunken log2 fold change” value was -0.422.
Take RRIRCRPPRLPRPRPRPIYHPRP: the “shrunken log2 fold change” value was -0.905.
With RRIRIRPPRLPRPRPRPKAAPRP, the “shrunken log2 fold change” value was found to be 0.147.
Take RRIRWRPPRLPRPRPRPILNPRP: the “shrunken log2 fold change” value is -0.362.
Consider RRIRARPPRLPRPRPRPRDGPRP, for which the “shrunken log2 fold change” value was found to be 1.3.
RRIRHRPPRLPRPRPRPKPRPRP: the “shrunken log2 fold change” value is 0.177.
For the sequence RRIRHRPPRLPRPRPRPKFHPRP, the “shrunken log2 fold change” value was -0.429.
The same measure for RRIRRRPPRLPRPRPRPKLPPRP: 0.369; for RRIRSRPPRLPRPRPRPRYLPRP: -0.329.
For RRIRARPPRLPRPRPRPYPTPRP, the “shrunken log2 fold change” value is -0.0691.
Under RRIRRRPPRLPRPRPRPLTHPRP stands 0.275.
Regarding RRIRERPPRLPRPRPRPMGVPRP, the “shrunken log2 fold change” value was determined as 0.22.
On to RRIRERPPRLPRPRPRPVCRPRP, for which the “shrunken log2 fold change” value was -0.0104.
Consider RRIRIRPPRLPRPRPRPIIPPRP, for which the “shrunken log2 fold change” value was -0.072.
On to RRIRIRPPRLPRPRPRPEAMPRP, for which the “shrunken log2 fold change” value is 0.124.
Take RRIRSRPPRLPRPRPRPTQEPRP: the “shrunken log2 fold change” value was determined as 0.342.
Take RRIRDRPPRLPRPRPRPNEYPRP: the “shrunken log2 fold change” value was 0.0406.
RRIRFRPPRLPRPRPRPIPQPRP: the “shrunken log2 fold change” value was determined as 0.132.
As for RRIRVRPPRLPRPRPRPWHSPRP, the “shrunken log2 fold change” value is -0.435.
Consider RRIRGRPPRLPRPRPRPQGCPRP, for which the “shrunken log2 fold change” value stood at 0.394.
As to RRIRTRPPRLPRPRPRPAVLPRP, the “shrunken log2 fold change” value amounted to 0.153.
For the sequence RRIRMRPPRLPRPRPRPASMPRP, the “shrunken log2 fold change” value came to 0.311.
For RRIRNRPPRLPRPRPRPCFDPRP, the “shrunken log2 fold change” value is -0.0482.
Under RRIRQRPPRLPRPRPRPGMVPRP stands 0.0259.
Under RRIRDRPPRLPRPRPRPWKYPRP stands -0.331; under RRIRPRPPRLPRPRPRPLLNPRP, -0.224; under RRIRARPPRLPRPRPRPIYEPRP, -0.352.
Under RRIRERPPRLPRPRPRPCMSPRP stands -0.00711; under RRIRRRPPRLPRPRPRPFPNPRP, 0.558.
For the sequence RRIRQRPPRLPRPRPRPIEVPRP, the “shrunken log2 fold change” value was 0.0112.
Under RRIRWRPPRLPRPRPRPRMRPRP stands 1.03.
As to RRIRLRPPRLPRPRPRPDGYPRP, the “shrunken log2 fold change” value was 0.0385.
Consider RRIRARPPRLPRPRPRPQYLPRP, for which the “shrunken log2 fold change” value is -0.204.
For the sequence RRIRQRPPRLPRPRPRPMLIPRP, the “shrunken log2 fold change” value is -0.221.
As for RRIRFRPPRLPRPRPRPGVNPRP, the “shrunken log2 fold change” value was 0.0431.
As for RRIRARPPRLPRPRPRPVWFPRP, the “shrunken log2 fold change” value was 0.334.
Regarding RRIRMRPPRLPRPRPRPTVQPRP, the “shrunken log2 fold change” value is -0.0862.
As for RRIRFRPPRLPRPRPRPVMAPRP, the “shrunken log2 fold change” value was -0.271.
Take RRIRYRPPRLPRPRPRPYFIPRP: the “shrunken log2 fold change” value was -0.629.
The same measure for RRIRERPPRLPRPRPRPHKFPRP: -0.984; for RRIRSRPPRLPRPRPRPWWQPRP: -0.0257; for RRIRFRPPRLPRPRPRPACNPRP: -0.26.
For the sequence RRIRCRPPRLPRPRPRPRMMPRP, the “shrunken log2 fold change” value is -0.11.
RRIRLRPPRLPRPRPRPQAHPRP: the “shrunken log2 fold change” value is -0.217.
In the case of RRIRYRPPRLPRPRPRPVWGPRP, the “shrunken log2 fold change” value is 0.432.
RRIRPRPPRLPRPRPRPNESPRP: the “shrunken log2 fold change” value is -0.00438.
Under RRIRFRPPRLPRPRPRPFQYPRP stands -0.127; under RRIRPRPPRLPRPRPRPVKSPRP, -0.0156; under RRIRDRPPRLPRPRPRPSGTPRP, -0.199.
As for RRIRKRPPRLPRPRPRPSRMPRP, the “shrunken log2 fold change” value came to 0.317.
Consider RRIRYRPPRLPRPRPRPIWYPRP, for which the “shrunken log2 fold change” value is -0.0575.
For the sequence RRIRIRPPRLPRPRPRPLWDPRP, the “shrunken log2 fold change” value is -0.113.
As for RRIRGRPPRLPRPRPRPGGMPRP, the “shrunken log2 fold change” value came out at 0.662.
Regarding RRIRRRPPRLPRPRPRPAGVPRP, the “shrunken log2 fold change” value amounted to 0.518.
Take RRIRVRPPRLPRPRPRPYSIPRP: the “shrunken log2 fold change” value was found to be 0.0569.
Turning to RRIRPRPPRLPRPRPRPDTYPRP, the “shrunken log2 fold change” value is -0.623.
RRIRDRPPRLPRPRPRPFQTPRP: the “shrunken log2 fold change” value was 0.0255.
With RRIRTRPPRLPRPRPRPTSQPRP, the “shrunken log2 fold change” value is -0.00402.
The same measure for RRIRWRPPRLPRPRPRPLNEPRP: -0.0646; for RRIRFRPPRLPRPRPRPTYKPRP: -0.42; for RRIRQRPPRLPRPRPRPWPTPRP: 0.00213.
The same measure for RRIRKRPPRLPRPRPRPDMEPRP: 0.092.
For the sequence RRIRLRPPRLPRPRPRPLHVPRP, the “shrunken log2 fold change” value is -0.173.
The same measure for RRIRLRPPRLPRPRPRPLITPRP: -0.238; for RRIRIRPPRLPRPRPRPAWMPRP: 0.0797.
For the sequence RRIRVRPPRLPRPRPRPFPVPRP, the “shrunken log2 fold change” value was -0.0106.
Under RRIRKRPPRLPRPRPRPVREPRP stands 0.817.
Consider RRIRQRPPRLPRPRPRPNRDPRP, for which the “shrunken log2 fold change” value is -0.178.
As to RRIRQRPPRLPRPRPRPVRRPRP, the “shrunken log2 fold change” value is -0.00994.
RRIRPRPPRLPRPRPRPHGMPRP: the “shrunken log2 fold change” value is -0.531.
With RRIRSRPPRLPRPRPRPCKPPRP, the “shrunken log2 fold change” value was -0.173.
RRIRCRPPRLPRPRPRPMYVPRP: the “shrunken log2 fold change” value is -0.766.
The same measure for RRIRARPPRLPRPRPRPYQNPRP: -0.559.
